Source: PMC10786891, “Massively parallel profiling of RNA-targeting CRISPR-Cas13d”
Changes are numbered by the printed parent chain. Names and notes keep the numbering of the source.

T1: EsCas13d, nuclease-dead (Eubacterium siraeum, UniProt B0MS50, R295A;H300A;R849A;H854A)
T1 sequence: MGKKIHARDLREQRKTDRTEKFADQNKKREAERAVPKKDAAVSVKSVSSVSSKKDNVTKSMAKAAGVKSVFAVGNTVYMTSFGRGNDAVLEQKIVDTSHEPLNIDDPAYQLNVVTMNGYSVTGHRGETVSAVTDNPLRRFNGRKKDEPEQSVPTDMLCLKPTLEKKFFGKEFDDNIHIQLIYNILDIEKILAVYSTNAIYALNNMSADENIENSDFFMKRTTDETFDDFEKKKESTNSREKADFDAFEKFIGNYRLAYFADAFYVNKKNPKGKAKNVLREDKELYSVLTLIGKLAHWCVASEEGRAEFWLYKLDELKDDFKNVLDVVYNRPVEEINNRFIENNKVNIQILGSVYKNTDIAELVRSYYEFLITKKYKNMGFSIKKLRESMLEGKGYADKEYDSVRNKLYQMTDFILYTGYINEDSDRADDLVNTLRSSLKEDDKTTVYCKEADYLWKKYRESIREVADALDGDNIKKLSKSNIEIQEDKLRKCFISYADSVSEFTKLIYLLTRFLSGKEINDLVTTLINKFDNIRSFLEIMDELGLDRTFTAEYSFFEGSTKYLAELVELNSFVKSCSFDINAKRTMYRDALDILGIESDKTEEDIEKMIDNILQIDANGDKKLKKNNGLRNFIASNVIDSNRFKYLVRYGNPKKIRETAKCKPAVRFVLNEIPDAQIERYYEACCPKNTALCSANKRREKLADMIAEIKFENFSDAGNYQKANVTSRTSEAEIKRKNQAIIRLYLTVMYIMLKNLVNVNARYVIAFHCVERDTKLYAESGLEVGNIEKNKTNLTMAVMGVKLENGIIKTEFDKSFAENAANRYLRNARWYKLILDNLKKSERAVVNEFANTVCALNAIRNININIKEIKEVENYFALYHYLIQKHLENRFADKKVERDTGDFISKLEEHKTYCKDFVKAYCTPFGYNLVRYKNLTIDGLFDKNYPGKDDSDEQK

B1: target 1 MT 5'PFS GUU 3'PFS CGG (mixed)
RNA 1: CACCCGUGCAAAAAUGCAGGGGUCUAAAACUGAGCGGAUAACCUCUCUAUGG
RNA 2: GGGAAUGGAUCCACAUCUACGAAUUCGUUCCAUAGAGAGGUUAUCCGCUCACGGAGAUCGGAAGAGCACACGU
B2: target 1 insA 3' of 8,insA 3' of 6 (mixed)
RNA 1: B1 RNA 1
RNA 2: GGGAAUGGAUCCACAUCUACGAAUUCGUACCAUAGAGAGGUUAUACCAGCUCACCGAGAUCGGAAGAGCACACGU
B3: target 1 C7A,U11G (mixed)
RNA 1: B1 RNA 1
RNA 2: B1 RNA 2 with U29A, U41G, C45A, G53C
B4: target 1 MT 5'PFS GUC 3'PFS AGU (mixed)
RNA 1: B1 RNA 1
RNA 2: B1 RNA 2 with U29C, C52A, G54U
B5: target 1 MT 5'PFS GUA 3'PFS UUU (mixed)
RNA 1: B1 RNA 1
RNA 2: B1 RNA 2 with U29A, C52U, G53U, G54U
B6: target 1 MT 5'PFS UUA 3'PFS CUA (mixed)
RNA 1: B1 RNA 1
RNA 2: B1 RNA 2 with G27U, U29A, G53U, G54A
B7: target 1 G5U,G13C (mixed)
RNA 1: B1 RNA 1
RNA 2: B1 RNA 2 with U29A, G39C, G47U, G53C
B8: target 1 MT 5'PFS GAC 3'PFS UAU (mixed)
RNA 1: B1 RNA 1
RNA 2: B1 RNA 2 with U28A, U29C, C52U, G53A, G54U
B9: target 1 MT 5'PFS UUG 3'PFS CUG (mixed)
RNA 1: B1 RNA 1
RNA 2: B1 RNA 2 with G27U, U29G, G53U
B10: target 1 MT 5'PFS UUA 3'PFS CUC (mixed)
RNA 1: B1 RNA 1
RNA 2: B1 RNA 2 with G27U, U29A, G53U, G54C
B11: target 1 MT 5'PFS CAU 3'PFS CUA (mixed)
RNA 1: B1 RNA 1
RNA 2: B1 RNA 2 with G27C, U28A, G53U, G54A
B12: target 1 MT 5'PFS UUA 3'PFS UAA (mixed)
RNA 1: B1 RNA 1
RNA 2: B1 RNA 2 with G27U, U29A, C52U, G53A, G54A
B13: target 1 MT 5'PFS GUA 3'PFS UUC (mixed)
RNA 1: B1 RNA 1
RNA 2: B1 RNA 2 with U29A, C52U, G53U, G54C
B14: target 1 MT 5'PFS GAC 3'PFS UAC (mixed)
RNA 1: B1 RNA 1
RNA 2: B1 RNA 2 with U28A, U29C, C52U, G53A, G54C
B15: target 1 MT 5'PFS GUA 3'PFS UUA (mixed)
RNA 1: B1 RNA 1
RNA 2: B1 RNA 2 with U29A, C52U, G53U, G54A
B16: target 1 MT 5'PFS CCA 3'PFS CGG (mixed)
RNA 1: B1 RNA 1
RNA 2: B1 RNA 2 with G27C, U28C, U29A
B17: target 1 MT 5'PFS UUA 3'PFS UAC (mixed)
RNA 1: B1 RNA 1
RNA 2: B1 RNA 2 with G27U, U29A, C52U, G53A, G54C
B18: target 1 MT 5'PFS UUA 3'PFS CUG (mixed)
RNA 1: B1 RNA 1
RNA 2: B1 RNA 2 with G27U, U29A, G53U
B19: target 1 MT 5'PFS CCG 3'PFS UCG (mixed)
RNA 1: B1 RNA 1
RNA 2: B1 RNA 2 with G27C, U28C, U29G, C52U, G53C
B20: target 1 MT 5'PFS GCG 3'PFS CCU (mixed)
RNA 1: B1 RNA 1
RNA 2: B1 RNA 2 with U28C, U29G, G53C, G54U
B21: target 1 MT 5'PFS CAU 3'PFS CUC (mixed)
RNA 1: B1 RNA 1
RNA 2: B1 RNA 2 with G27C, U28A, G53U, G54C
B22: target 1 MT 5'PFS GUC 3'PFS AGA (mixed)
RNA 1: B1 RNA 1
RNA 2: B1 RNA 2 with U29C, C52A, G54A
B23: target 1 MT 5'PFS AUA 3'PFS ACU (mixed)
RNA 1: B1 RNA 1
RNA 2: B1 RNA 2 with G27A, U29A, C52A, G53C, G54U
B24: target 1 MT 5'PFS GUA 3'PFS UUG (mixed)
RNA 1: B1 RNA 1
RNA 2: B1 RNA 2 with U29A, C52U, G53U
B25: target 1 MT 5'PFS GGG 3'PFS ACU (mixed)
RNA 1: B1 RNA 1
RNA 2: B1 RNA 2 with U28G, U29G, C52A, G53C, G54U
B26: target 1 MT 5'PFS GUC 3'PFS AGG (mixed)
RNA 1: B1 RNA 1
RNA 2: B1 RNA 2 with U29C, C52A
B27: target 1 MT 5'PFS GCG 3'PFS AAU (mixed)
RNA 1: B1 RNA 1
RNA 2: B1 RNA 2 with U28C, U29G, C52A, G53A, G54U
B28: target 1 MT 5'PFS GGC 3'PFS CCU (mixed)
RNA 1: B1 RNA 1
RNA 2: B1 RNA 2 with U28G, U29C, G53C, G54U
B29: target 1 MT 5'PFS UUA 3'PFS UAG (mixed)
RNA 1: B1 RNA 1
RNA 2: B1 RNA 2 with G27U, U29A, C52U, G53A
B30: target 1 MT 5'PFS GUU 3'PFS ACU (mixed)
RNA 1: B1 RNA 1
RNA 2: B1 RNA 2 with C52A, G53C, G54U
B31: target 1 MT 5'PFS GCG 3'PFS CCG (mixed)
RNA 1: B1 RNA 1
RNA 2: B1 RNA 2 with U28C, U29G, G53C
B32: target 1 MT 5'PFS GAC 3'PFS UAG (mixed)
RNA 1: B1 RNA 1
RNA 2: B1 RNA 2 with U28A, U29C, C52U, G53A
B33: target 1 MT 5'PFS UAG 3'PFS GAG (mixed)
RNA 1: B1 RNA 1
RNA 2: B1 RNA 2 with G27U, U28A, U29G, C52G, G53A
B34: target 1 MT 5'PFS GAC 3'PFS UAA (mixed)
RNA 1: B1 RNA 1
RNA 2: B1 RNA 2 with U28A, U29C, C52U, G53A, G54A
B35: target 1 MT 5'PFS GUU 3'PFS CGU (mixed)
RNA 1: B1 RNA 1
RNA 2: B1 RNA 2 with G54U
B36: target 1 MT 5'PFS UUG 3'PFS CUA (mixed)
RNA 1: B1 RNA 1
RNA 2: B1 RNA 2 with G27U, U29G, G53U, G54A
B37: target 1 MT 5'PFS GGU 3'PFS CCU (mixed)
RNA 1: B1 RNA 1
RNA 2: B1 RNA 2 with U28G, G53C, G54U
B38: target 1 MT 5'PFS CCG 3'PFS UCC (mixed)
RNA 1: B1 RNA 1
RNA 2: B1 RNA 2 with G27C, U28C, U29G, C52U, G53C, G54C
B39: target 1 MT 5'PFS GUC 3'PFS AGC (mixed)
RNA 1: B1 RNA 1
RNA 2: B1 RNA 2 with U29C, C52A, G54C
B40: target 1 MT 5'PFS GUC 3'PFS CAU (mixed)
RNA 1: B1 RNA 1
RNA 2: B1 RNA 2 with U29C, G53A, G54U

Target: T1, EsCas13d, nuclease-dead
Experiment: crRNA (strand 1, pre-loaded); Mg2+; 40 mM Tris-HCl pH 7.5, 150 mM NaCl, 6 mM MgCl2, 1 mM DTT, 0.1% Tween-20, 0.2 mg/ml BSA; 25 C; 10 min per concentration, then washed
Details: tags: His6-TwinStrep-SUMO cleaved; N-terminal SNAP kept (SNAP-Surface 488); label: 3' end held by stalled T7 RNA polymerase

| Binder | Kd |
| --- | --- |
| B1 | 67 ± 9 nM |
| B2 | 13.8 ± 0.7 nM |
| B3 | 13.4 ± 0.6 nM |
| B4 | 20.6 ± 2.7 nM |
| B5 | 8.21 ± 0.5 nM |
| B6 | ~47 nM |
| B7 | 39 ± 6 nM |
| B8 | 19 ± 6 nM |
| B9 | 23.5 ± 5.75 nM |
| B10 | 16 ± 4 nM |
| B11 | ~110 nM |
| B12 | 21.5 ± 7 nM |
| B13 | 9.25 ± 1.1 nM |
| B14 | 19 ± 8 nM |
| B15 | 9.85 ± 1.15 nM |
| B16 | 5.05 ± 1.35 nM |
| B17 | 35 ± 7 nM |
| B18 | 14.9 ± 2.6 nM |
| B19 | 3.4 ± 1.3 nM |
| B20 | 18.5 ± 6.5 nM |

| Binder | Kd |
| --- | --- |
| B21 | ~90 nM |
| B22 | 19.5 ± 3.85 nM |
| B23 | 15.5 ± 4 nM |
| B24 | 8.11 ± 0.52 nM |
| B25 | 14.2 ± 1.3 nM |
| B26 | 46 ± 9 nM |
| B27 | 33.5 ± 9.5 nM |
| B28 | 15.9 ± 4.7 nM |
| B29 | 27.5 ± 6 nM |
| B30 | 15.8 ± 1.8 nM |
| B31 | 12.4 ± 3.4 nM |
| B32 | 27.5 ± 11 nM |
| B33 | 91 ± 37 nM |
| B34 | 17.5 ± 4.5 nM |
| B35 | 12.3 ± 1.8 nM |
| B36 | 45.5 ± 18 nM |
| B37 | 75.5 ± 30.5 nM |
| B38 | 5.6 ± 2.35 nM |
| B39 | 9.1 ± 1.75 nM |
| B40 | 24.5 ± 9 nM |
